We go through seven substances from article PMC11035067.

Broadly, the stoichiometry N is a count of units in the complex or per binding partner.

Assay in all cases: SEC; gel filtration during purification, Superdex 200 increase 10/300 GL in gel-filtration buffer (Table S2), non-actinic dim green light; self-association (dimer)
In general terms: SEC sorts molecules by how far they enter the pores of the column.

Assay [1] addresses IsPadC D199N (Idiomarina sp. A28L).
In assay [2] the target is Idiomarina species A28L phytochrome-activated diguanylate cyclase (IsPadC), wild type (Idiomarina sp. A28L).
The target of assay [3] is IsPadC G449E (Idiomarina sp. A28L).
The target of assay [4] is IsPadC D199L (Idiomarina sp. A28L).
The target of assay [5] is IsPadC H193L (Idiomarina sp. A28L).
Assay [6] concerns the target IsPadC H193Q (Idiomarina sp. A28L).
In assay [7] the target is IsPadC R467S (Idiomarina sp. A28L).

Consider IsPadC D199N (enzyme), for which the stoichiometry N in assay [1] was 2.
In the case of “Idiomarina species A28L phytochrome-activated diguanylate cyclase (IsPadC), wild type (enzyme)”, in assay [2], the stoichiometry N came out at 2.
Take IsPadC G449E (enzyme): the stoichiometry N in assay [3] turned out to be 2.
Substance IsPadC D199L (enzyme) yielded a stoichiometry N in assay [4] of 2.
Substance IsPadC H193L (enzyme) registered a stoichiometry N in assay [5] of 2.
As for IsPadC H193Q (enzyme), in assay [6], the stoichiometry N was 2.
In turn, IsPadC R467S (enzyme) had a stoichiometry N in assay [7] of 2.
